Data from patent US20180155451A1 (published 2018).

T1: FcγRIIb extracellular domain with C-terminal His tag (human, UniProt P31994 43-217)
T1 construct: extracellular domain; expressed in FreeStyle293 cells; analyte in the Biacore assay; also called FcgRIIb; 2b; not shown: His tag at the C terminus
T1 sequence (looked up): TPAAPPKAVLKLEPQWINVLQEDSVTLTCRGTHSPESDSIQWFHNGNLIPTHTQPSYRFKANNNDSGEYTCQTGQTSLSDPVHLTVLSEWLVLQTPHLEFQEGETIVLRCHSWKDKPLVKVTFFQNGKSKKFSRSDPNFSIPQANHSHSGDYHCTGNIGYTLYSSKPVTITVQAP

B1: GpH7-B3 variant K334_02A/GpL16-k0 (antibody, human IgG1, kappa)
heavy: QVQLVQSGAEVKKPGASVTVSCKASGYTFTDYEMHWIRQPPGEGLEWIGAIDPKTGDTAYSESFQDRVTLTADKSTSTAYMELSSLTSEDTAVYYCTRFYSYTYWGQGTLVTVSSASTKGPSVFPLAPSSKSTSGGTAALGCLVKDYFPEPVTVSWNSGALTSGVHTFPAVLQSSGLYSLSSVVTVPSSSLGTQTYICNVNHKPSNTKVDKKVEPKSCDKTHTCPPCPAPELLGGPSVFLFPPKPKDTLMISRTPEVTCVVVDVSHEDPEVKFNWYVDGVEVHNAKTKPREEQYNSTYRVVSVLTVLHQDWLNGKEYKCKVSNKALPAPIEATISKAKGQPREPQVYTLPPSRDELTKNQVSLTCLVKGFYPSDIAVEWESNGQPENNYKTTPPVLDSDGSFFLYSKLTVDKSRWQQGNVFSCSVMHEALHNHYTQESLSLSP
light: DIVMTQSPLSLPVTPGEPASISCQASESLVHSNRNTYLHWYLQKPGQSPQLLIYKVSNRFSGVPDRFSGSGSGTDFTLKISRVEAEDVGVYYCSQNTHVPPTFGQGTKVEIERTVAAPSVFIFPPSDEQLKSGTASVVCLLNNFYPREAKVQWKVDNALQSGNSQESVTEQDSKDSTYSLSSTLTLSKADYEKHKVYACEVTHQGLSSPVTKSFNRGEC
notes: homodimerized; mutation in both H chains; also called Ho Ab K334_02A
B2: GpH7-A5/GpH7-B3 variant K326_07I/GpL16-k0 (antibody, human IgG1, kappa)
heavy 1: not shown
heavy 2: not shown
light: B1 light
notes: heterodimerized; mutation in the B3 H chain only; also called He Ab K326_07I
B3: GpH7-A5/GpH7-B3 variant G237_20W/GpL16-k0 (antibody, human IgG1, kappa)
heavy 1: not shown
heavy 2: not shown
light: B1 light
notes: heterodimerized; mutation in the B3 H chain only; also called He Ab G237_20W
B4: GpH7-A5/GpH7-B3 variant G236_10E/GpL16-k0 (antibody, human IgG1, kappa)
heavy 1: not shown
heavy 2: not shown
light: B1 light
notes: heterodimerized; mutation in the B3 H chain only; also called He Ab G236_10E
B5: GpH7-A5/GpH7-B3 variant H268_13S/GpL16-k0 (antibody, human IgG1, kappa)
heavy 1: not shown
heavy 2: not shown
light: B1 light
notes: heterodimerized; mutation in the B3 H chain only; also called He Ab H268_13S
B6: GpH7-B3 variant P331_20W/GpL16-k0 (antibody, human IgG1, kappa)
heavy: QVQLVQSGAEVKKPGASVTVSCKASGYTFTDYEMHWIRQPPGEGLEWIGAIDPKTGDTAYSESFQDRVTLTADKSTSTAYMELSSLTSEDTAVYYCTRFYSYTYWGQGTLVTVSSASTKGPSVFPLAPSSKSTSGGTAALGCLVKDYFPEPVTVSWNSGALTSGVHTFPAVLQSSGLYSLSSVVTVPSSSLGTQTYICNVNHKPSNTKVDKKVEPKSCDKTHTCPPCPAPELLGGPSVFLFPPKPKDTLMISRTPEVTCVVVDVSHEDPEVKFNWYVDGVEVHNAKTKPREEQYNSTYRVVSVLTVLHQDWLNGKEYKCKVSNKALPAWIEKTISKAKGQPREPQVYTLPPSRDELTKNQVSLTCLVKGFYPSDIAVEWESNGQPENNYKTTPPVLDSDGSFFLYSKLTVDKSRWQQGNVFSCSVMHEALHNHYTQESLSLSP
light: B1 light
notes: homodimerized; mutation in both H chains; also called Ho Ab P331_20W
B7: GpH7-B3 variant K334_10E/GpL16-k0 (antibody, human IgG1, kappa)
heavy: not shown
light: B1 light
notes: homodimerized; mutation in both H chains; also called Ho Ab K334_10E
B8: GpH7-B3 variant K334_04F/GpL16-k0 (antibody, human IgG1, kappa)
heavy: not shown
light: B1 light
notes: homodimerized; mutation in both H chains; also called Ho Ab K334_04F
B9: GpH7-B3 variant P331_16H/GpL16-k0 (antibody, human IgG1, kappa)
heavy: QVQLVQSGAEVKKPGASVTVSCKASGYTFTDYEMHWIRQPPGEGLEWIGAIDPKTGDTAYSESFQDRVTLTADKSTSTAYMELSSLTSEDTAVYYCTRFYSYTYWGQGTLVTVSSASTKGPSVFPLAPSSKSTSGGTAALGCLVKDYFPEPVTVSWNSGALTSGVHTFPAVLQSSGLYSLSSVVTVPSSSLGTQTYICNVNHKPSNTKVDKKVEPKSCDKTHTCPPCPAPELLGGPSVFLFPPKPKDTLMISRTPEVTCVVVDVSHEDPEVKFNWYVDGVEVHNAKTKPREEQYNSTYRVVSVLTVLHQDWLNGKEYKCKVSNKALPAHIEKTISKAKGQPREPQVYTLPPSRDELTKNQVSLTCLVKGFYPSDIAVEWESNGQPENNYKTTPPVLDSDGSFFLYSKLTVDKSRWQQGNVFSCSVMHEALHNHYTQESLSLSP
light: B1 light
notes: homodimerized; mutation in both H chains; also called Ho Ab P331_16H
B10: GpH7-B3 variant T335_10E/GpL16-k0 (antibody, human IgG1, kappa)
heavy: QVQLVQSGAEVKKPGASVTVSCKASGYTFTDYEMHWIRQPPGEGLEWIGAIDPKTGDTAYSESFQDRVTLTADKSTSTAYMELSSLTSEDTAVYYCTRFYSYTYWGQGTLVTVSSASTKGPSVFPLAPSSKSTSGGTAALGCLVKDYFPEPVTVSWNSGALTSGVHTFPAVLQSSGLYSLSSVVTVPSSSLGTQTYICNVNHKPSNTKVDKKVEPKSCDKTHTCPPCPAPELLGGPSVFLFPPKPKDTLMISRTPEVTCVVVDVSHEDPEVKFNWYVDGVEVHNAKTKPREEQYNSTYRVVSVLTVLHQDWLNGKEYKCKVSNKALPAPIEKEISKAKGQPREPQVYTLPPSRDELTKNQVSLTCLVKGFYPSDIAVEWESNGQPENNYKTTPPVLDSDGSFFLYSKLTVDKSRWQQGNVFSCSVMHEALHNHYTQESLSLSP
light: B1 light
notes: homodimerized; mutation in both H chains; also called Ho Ab T335_10E
B11: GpH7-B3 variant L235_20W/GpL16-k0 (antibody, human IgG1, kappa)
heavy: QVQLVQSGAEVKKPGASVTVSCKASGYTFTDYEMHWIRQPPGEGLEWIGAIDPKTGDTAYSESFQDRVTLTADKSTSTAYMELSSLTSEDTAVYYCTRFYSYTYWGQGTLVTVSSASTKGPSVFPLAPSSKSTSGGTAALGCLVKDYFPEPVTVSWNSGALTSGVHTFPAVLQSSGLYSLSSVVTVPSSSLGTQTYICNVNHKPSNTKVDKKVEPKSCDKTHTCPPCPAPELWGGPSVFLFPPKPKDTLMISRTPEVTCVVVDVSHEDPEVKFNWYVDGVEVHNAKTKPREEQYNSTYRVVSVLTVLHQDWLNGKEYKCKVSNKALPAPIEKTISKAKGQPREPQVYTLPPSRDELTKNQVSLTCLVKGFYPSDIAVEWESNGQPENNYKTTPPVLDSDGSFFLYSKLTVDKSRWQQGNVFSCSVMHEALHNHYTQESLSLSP
light: B1 light
notes: homodimerized; mutation in both H chains; also called Ho Ab L235_20W
B12: GpH7-B3 variant L328_02A/GpL16-k0 (antibody, human IgG1, kappa)
heavy: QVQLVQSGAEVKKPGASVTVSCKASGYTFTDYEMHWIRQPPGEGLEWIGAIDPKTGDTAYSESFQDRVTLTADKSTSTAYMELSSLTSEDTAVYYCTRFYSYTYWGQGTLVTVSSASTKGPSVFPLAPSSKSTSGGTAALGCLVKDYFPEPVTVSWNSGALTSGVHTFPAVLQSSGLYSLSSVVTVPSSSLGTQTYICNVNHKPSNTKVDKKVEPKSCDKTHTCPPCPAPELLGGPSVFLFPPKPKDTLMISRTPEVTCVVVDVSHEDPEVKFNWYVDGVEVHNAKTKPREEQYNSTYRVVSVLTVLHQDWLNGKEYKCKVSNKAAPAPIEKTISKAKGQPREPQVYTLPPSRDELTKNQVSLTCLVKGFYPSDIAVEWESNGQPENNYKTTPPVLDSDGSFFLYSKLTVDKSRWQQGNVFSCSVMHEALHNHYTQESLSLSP
light: B1 light
notes: homodimerized; mutation in both H chains; also called Ho Ab L328_02A
B13: GpH7-B3 variant K334_08L/GpL16-k0 (antibody, human IgG1, kappa)
heavy: not shown
light: B1 light
notes: homodimerized; mutation in both H chains; also called Ho Ab K334_08L
B14: GpH7-B3 variant P238_04F/GpL16-k0 (antibody, human IgG1, kappa)
heavy: not shown
light: B1 light
notes: homodimerized; mutation in both H chains; also called Ho Ab P238_04F
B15: GpH7-B3 variant P331_15Y/GpL16-k0 (antibody, human IgG1, kappa)
heavy: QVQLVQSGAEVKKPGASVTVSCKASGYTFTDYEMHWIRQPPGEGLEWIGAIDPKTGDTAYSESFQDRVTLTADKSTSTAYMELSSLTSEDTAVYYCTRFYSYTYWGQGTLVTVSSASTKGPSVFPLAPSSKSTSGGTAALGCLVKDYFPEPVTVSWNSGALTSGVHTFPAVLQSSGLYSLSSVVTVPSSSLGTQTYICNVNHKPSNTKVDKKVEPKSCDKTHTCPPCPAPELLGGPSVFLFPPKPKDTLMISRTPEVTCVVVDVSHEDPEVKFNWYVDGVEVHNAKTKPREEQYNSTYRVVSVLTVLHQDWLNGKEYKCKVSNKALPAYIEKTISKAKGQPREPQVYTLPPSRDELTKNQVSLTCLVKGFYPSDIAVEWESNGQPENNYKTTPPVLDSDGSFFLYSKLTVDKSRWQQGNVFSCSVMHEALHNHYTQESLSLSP
light: B1 light
notes: homodimerized; mutation in both H chains; also called Ho Ab P331_15Y
B16: GpH7-B3 variant K334_14T/GpL16-k0 (antibody, human IgG1, kappa)
heavy: not shown
light: B1 light
notes: homodimerized; mutation in both H chains; also called Ho Ab K334_14T
B17: GpH7-A5/GpH7-B3 variant I332_06M/GpL16-k0 (antibody, human IgG1, kappa)
heavy 1: not shown
heavy 2: not shown
light: B1 light
notes: heterodimerized; mutation in the B3 H chain only; also called He Ab I332_06M
B18: GpH7-B3 variant L328_13S/GpL16-k0 (antibody, human IgG1, kappa)
heavy: not shown
light: B1 light
notes: homodimerized; mutation in both H chains; also called Ho Ab L328_13S
B19: GpH7-B3 variant Y296_20W/GpL16-k0 (antibody, human IgG1, kappa)
heavy: not shown
light: B1 light
notes: homodimerized; mutation in both H chains; also called Ho Ab Y296_20W
B20: GpH7-A5/GpH7-B3 variant A327_10E/GpL16-k0 (antibody, human IgG1, kappa)
heavy 1: not shown
heavy 2: not shown
light: B1 light
notes: heterodimerized; mutation in the B3 H chain only; also called He Ab A327_10E
B21: GpH7-B3 variant S324_06M/GpL16-k0 (antibody, human IgG1, kappa)
heavy: not shown
light: B1 light
notes: homodimerized; mutation in both H chains; also called Ho Ab S324_06M
B22: GpH7-A5/GpH7-B3 variant A330_01G/GpL16-k0 (antibody, human IgG1, kappa)
heavy 1: not shown
heavy 2: not shown
light: B1 light
notes: heterodimerized; mutation in the B3 H chain only; also called He Ab A330_01G
B23: GpH7-B3 variant V266_06M/GpL16-k0 (antibody, human IgG1, kappa)
heavy: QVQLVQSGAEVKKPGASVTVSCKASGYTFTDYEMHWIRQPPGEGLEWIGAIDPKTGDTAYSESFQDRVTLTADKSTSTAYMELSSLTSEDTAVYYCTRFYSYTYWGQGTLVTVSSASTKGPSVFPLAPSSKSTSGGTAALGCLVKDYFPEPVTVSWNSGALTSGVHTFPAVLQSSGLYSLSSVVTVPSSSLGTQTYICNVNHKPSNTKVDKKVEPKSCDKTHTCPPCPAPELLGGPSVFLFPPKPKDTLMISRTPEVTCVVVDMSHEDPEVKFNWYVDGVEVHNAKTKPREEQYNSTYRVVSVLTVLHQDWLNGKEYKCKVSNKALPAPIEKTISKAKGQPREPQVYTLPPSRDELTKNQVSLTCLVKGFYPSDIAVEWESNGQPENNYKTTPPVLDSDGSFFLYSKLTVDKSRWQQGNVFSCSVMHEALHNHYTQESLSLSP
light: B1 light
notes: homodimerized; mutation in both H chains; also called Ho Ab V266_06M
B24: GpH7-B3 variant S267_06M/GpL16-k0 (antibody, human IgG1, kappa)
heavy: not shown
light: B1 light
notes: homodimerized; mutation in both H chains; also called Ho Ab S267_06M
B25: GpH7-A5/GpH7-B3 variant H268_09D/GpL16-k0 (antibody, human IgG1, kappa)
heavy 1: not shown
heavy 2: not shown
light: B1 light
notes: heterodimerized; mutation in the B3 H chain only; also called He Ab H268_09D
B26: GpH7-B3 variant P238_15Y/GpL16-k0 (antibody, human IgG1, kappa)
heavy: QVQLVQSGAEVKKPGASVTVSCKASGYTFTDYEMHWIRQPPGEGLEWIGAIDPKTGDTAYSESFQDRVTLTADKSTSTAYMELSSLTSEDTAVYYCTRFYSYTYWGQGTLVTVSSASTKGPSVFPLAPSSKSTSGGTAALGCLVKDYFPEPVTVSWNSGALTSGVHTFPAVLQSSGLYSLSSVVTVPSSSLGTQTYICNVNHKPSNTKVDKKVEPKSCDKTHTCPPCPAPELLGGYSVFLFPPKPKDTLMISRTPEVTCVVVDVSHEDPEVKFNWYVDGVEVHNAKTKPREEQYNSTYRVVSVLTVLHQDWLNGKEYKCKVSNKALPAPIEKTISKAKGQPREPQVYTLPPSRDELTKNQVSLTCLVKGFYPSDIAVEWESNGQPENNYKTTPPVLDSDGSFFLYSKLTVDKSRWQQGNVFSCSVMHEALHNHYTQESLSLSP
light: B1 light
notes: homodimerized; mutation in both H chains; also called Ho Ab P238_15Y
B27: GpH7-B3 variant S239_03V/GpL16-k0 (antibody, human IgG1, kappa)
heavy: not shown
light: B1 light
notes: homodimerized; mutation in both H chains; also called Ho Ab S239_03V
B28: GpH7-A5/GpH7-B3 variant H268_01G/GpL16-k0 (antibody, human IgG1, kappa)
heavy 1: not shown
heavy 2: not shown
light: B1 light
notes: heterodimerized; mutation in the B3 H chain only; also called He Ab H268_01G
B29: GpH7-B3 variant K334_07I/GpL16-k0 (antibody, human IgG1, kappa)
heavy: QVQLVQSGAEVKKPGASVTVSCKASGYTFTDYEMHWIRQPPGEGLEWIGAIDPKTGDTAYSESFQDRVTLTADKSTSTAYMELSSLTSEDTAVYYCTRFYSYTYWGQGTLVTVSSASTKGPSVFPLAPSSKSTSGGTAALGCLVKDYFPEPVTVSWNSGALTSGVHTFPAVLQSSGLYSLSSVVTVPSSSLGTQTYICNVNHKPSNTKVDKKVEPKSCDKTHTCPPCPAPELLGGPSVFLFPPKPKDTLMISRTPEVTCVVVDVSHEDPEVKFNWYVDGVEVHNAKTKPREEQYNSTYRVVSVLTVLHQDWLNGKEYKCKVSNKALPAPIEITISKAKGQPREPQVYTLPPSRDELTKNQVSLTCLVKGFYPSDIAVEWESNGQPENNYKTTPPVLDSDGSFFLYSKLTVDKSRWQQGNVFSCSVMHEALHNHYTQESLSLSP
light: B1 light
notes: homodimerized; mutation in both H chains; also called Ho Ab K334_07I
B30: GpH7-B3 variant S239_10E/GpL16-k0 (antibody, human IgG1, kappa)
heavy: not shown
light: B1 light
notes: homodimerized; mutation in both H chains; also called Ho Ab S239_10E
B31: GpH7-A5/GpH7-B3 variant I332_04F/GpL16-k0 (antibody, human IgG1, kappa)
heavy 1: not shown
heavy 2: not shown
light: B1 light
notes: heterodimerized; mutation in the B3 H chain only; also called He Ab I332_04F
B32: GpH7-B3 variant S267_19Q/GpL16-k0 (antibody, human IgG1, kappa)
heavy: not shown
light: B1 light
notes: homodimerized; mutation in both H chains; also called Ho Ab S267_19Q
B33: GpH7-B3 variant T335_07I/GpL16-k0 (antibody, human IgG1, kappa)
heavy: not shown
light: B1 light
notes: homodimerized; mutation in both H chains; also called Ho Ab T335_07I
B34: GpH7-B3 variant K334_03V/GpL16-k0 (antibody, human IgG1, kappa)
heavy: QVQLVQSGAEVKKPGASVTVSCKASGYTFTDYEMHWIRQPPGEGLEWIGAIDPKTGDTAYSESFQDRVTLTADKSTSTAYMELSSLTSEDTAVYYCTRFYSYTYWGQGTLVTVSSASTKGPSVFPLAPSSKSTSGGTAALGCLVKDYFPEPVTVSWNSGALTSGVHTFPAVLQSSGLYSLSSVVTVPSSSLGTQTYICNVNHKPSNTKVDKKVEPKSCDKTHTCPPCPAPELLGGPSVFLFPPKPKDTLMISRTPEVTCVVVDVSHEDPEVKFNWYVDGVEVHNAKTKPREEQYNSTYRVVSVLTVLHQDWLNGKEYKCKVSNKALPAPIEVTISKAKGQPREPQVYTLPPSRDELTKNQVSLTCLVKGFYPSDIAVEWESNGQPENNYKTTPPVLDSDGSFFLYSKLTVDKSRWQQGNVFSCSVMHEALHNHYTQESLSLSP
light: B1 light
notes: homodimerized; mutation in both H chains; also called Ho Ab K334_03V
B35: GpH7-A5/GpH7-B3 variant H268_10E/GpL16-k0 (antibody, human IgG1, kappa)
heavy 1: not shown
heavy 2: not shown
light: B1 light
notes: heterodimerized; mutation in the B3 H chain only; also called He Ab H268_10E
B36: GpH7-B3 variant P238_09D/GpL16-k0 (antibody, human IgG1, kappa)
heavy: not shown
light: B1 light
notes: homodimerized; mutation in both H chains; also called Ho Ab P238_09D
B37: GpH7-A5/GpH7-B3 variant A327_09D/GpL16-k0 (antibody, human IgG1, kappa)
heavy 1: not shown
heavy 2: not shown
light: B1 light
notes: heterodimerized; mutation in the B3 H chain only; also called He Ab A327_09D
B38: GpH7-A5/GpH7-B3 variant G237_04F/GpL16-k0 (antibody, human IgG1, kappa)
heavy 1: not shown
heavy 2: not shown
light: B1 light
notes: heterodimerized; mutation in the B3 H chain only; also called He Ab G237_04F
B39: GpH7-A5/GpH7-B3 variant H268_18N/GpL16-k0 (antibody, human IgG1, kappa)
heavy 1: not shown
heavy 2: not shown
light: B1 light
notes: heterodimerized; mutation in the B3 H chain only; also called He Ab H268_18N
B40: GpH7-B3 variant K334_13S/GpL16-k0 (antibody, human IgG1, kappa)
heavy: not shown
light: B1 light
notes: homodimerized; mutation in both H chains; also called Ho Ab K334_13S
B41: GpH7-A5/GpH7-B3 variant G236_09D/GpL16-k0 (antibody, human IgG1, kappa)
heavy 1: not shown
heavy 2: not shown
light: B1 light
notes: heterodimerized; mutation in the B3 H chain only; also called He Ab G236_09D
B42: GpH7-B3 variant T335_15Y/GpL16-k0 (antibody, human IgG1, kappa)
heavy: not shown
light: B1 light
notes: homodimerized; mutation in both H chains; also called Ho Ab T335_15Y
B43: GpH7-B3 variant S337_16H/GpL16-k0 (antibody, human IgG1, kappa)
heavy: not shown
light: B1 light
notes: homodimerized; mutation in both H chains; also called Ho Ab S337_16H
B44: GpH7-B3 variant K334_05P/GpL16-k0 (antibody, human IgG1, kappa)
heavy: not shown
light: B1 light
notes: homodimerized; mutation in both H chains; also called Ho Ab K334_05P

Columns and labels:
[1] = molecular target: T1, FcγRIIb extracellular domain with …; assay: SPR (Biacore), captured antibody, FcγRIIb analyte; binding relative to GpH7-B3/GpL16-k0 = 100
[2] = molecular target: T1, FcγRIIb extracellular domain with …; assay: SPR (Biacore), captured antibody, FcγRIIb analyte; binding relative to GpH7-A5/GpH7-B3/GpL16-k0 = 100

| Binder | Ho/Con_2b [1] | He/Con_2b [2] |
| --- | --- | --- |
| B1 | 110 % of control | – |
| B2 | – | 199 % of control |
| B3 | – | 193 % of control |
| B4 | – | 110 % of control |
| B5 | – | 160 % of control |
| B6 | 111 % of control | – |
| B7 | 129 % of control | – |
| B8 | 115 % of control | – |
| B9 | 100 % of control | – |
| B10 | 108 % of control | – |
| B11 | 116 % of control | – |
| B12 | 117 % of control | – |
| B13 | 114 % of control | – |
| B14 | 209 % of control | – |
| B15 | 111 % of control | – |
| B16 | 138 % of control | – |
| B17 | – | 105 % of control |
| B18 | 147 % of control | – |
| B19 | 103 % of control | – |
| B20 | – | 140 % of control |
| B21 | 104 % of control | – |
| B22 | – | 104 % of control |

| Binder | Ho/Con_2b [1] | He/Con_2b [2] |
| --- | --- | --- |
| B23 | 231 % of control | – |
| B24 | 187 % of control | – |
| B25 | – | 239 % of control |
| B26 | 114 % of control | – |
| B27 | 108 % of control | – |
| B28 | – | 144 % of control |
| B29 | 137 % of control | – |
| B30 | 175 % of control | – |
| B31 | – | 104 % of control |
| B32 | 185 % of control | – |
| B33 | 104 % of control | – |
| B34 | 145 % of control | – |
| B35 | – | 230 % of control |
| B36 | 207 % of control | – |
| B37 | – | 172 % of control |
| B38 | – | 149 % of control |
| B39 | – | 156 % of control |
| B40 | 117 % of control | – |
| B41 | – | 167 % of control |
| B42 | 104 % of control | – |
| B43 | 103 % of control | – |
| B44 | 112 % of control | – |
